From patent publication US6417168

Columns and labels:
[1] = biological target: human epidermal growth factor receptor (EGFR), full-length wild type (human) (UniProt P00533); assay: cell-based or functional assay
[2] = biological target: ΔEGFR, extracellular-deleted mutant human EGFR (EGFRvIII) (human) (UniProt P00533); assay: cell-based or functional assay

N691stop (truncated rat cellular p185, stop codon for Thr^691) (from UniProt P06494 23-690) (receptor)
EGF-induced down-regulation of cell surface EGFR (flow cytometry), maximum reduction [1]: 20 to 25%

N757 (Nneu K757M, ATP-binding mutant of rat cellular p185) (from UniProt P06494 23-1257) (receptor)
EGF-induced down-regulation of cell surface EGFR (flow cytometry), maximum reduction [1]: 20 to 25%

T691stop neu (truncated rat oncogenic p185neu, stop codon at amino acid 691, val→glu at amino acid 664) (from UniProt P06494 23-687) (receptor)
apoptosis of U87/T691 cells, serum deprivation combined with radiation (DAPI) [1]: 33%
inhibition of anchorage-independent growth in U87MG parental cells lacking ΔEGFR [1]: 75.2%
phosphorylation content of immunoprecipitated p155ΔEGFR monomers (scanning densitometry, PY-20 blot) [2]: 33.7%
soft agar growth of U87MG.ΔEGFR/T691s cells, reduction compared to U87MG.ΔEGFR cells [2]: 45%
soft agar growth of U87MG.ΔEGFR/T691s cells, reduction compared to parental U87MG cells [2]: 41.3%

wildtype cellular rat p185 (Nneu) (from UniProt P06494 23-1257) (receptor)
co-downregulation of cellular p185 with EGFR upon EGF treatment (flow cytometry, M1 cells) [1]: 20%
